Results taken from doi:10.1101/2021.02.23.432414.
Where two headings read alike, the source gives them in different places.

Legend:
[1] = biological target: fluorescently labelled double-cysteine variant of outer membrane protein X (OmpX_(1,149)), unfolded (UniProt P0A917); assay: single-molecule FRET
[2] = biological target: fluorescently labelled double-cysteine variant of outer membrane protein X (OmpX_(1,149)), unfolded (UniProt P0A917); assay: single-molecule FRET; remark: listed apart in the source

UniProt P0A917, sequence (P0A917 24-171, change not shown): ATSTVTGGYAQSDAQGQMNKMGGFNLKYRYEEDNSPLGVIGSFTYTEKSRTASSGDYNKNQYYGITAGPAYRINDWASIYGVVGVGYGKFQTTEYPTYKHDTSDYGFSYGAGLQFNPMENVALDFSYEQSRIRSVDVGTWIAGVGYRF

c1/2 [2] [nM]	dH [2] [kcal/mol]	percent of uOmpX bound at 2.5 uM Skp3 [2] [%]	Molecule	c1/2 [1] [nM]	dH [1] [kcal/mol]	percent of uOmpX bound at ~6 uM SurA [1] [%]
			survival factor A (SurA) (from UniProt P0ABZ6 21-428) (natural protein)	407	-31.5	87
359	-71.2	80	seventeen-kilodalton protein (Skp), trimer (natural protein) ADKIAIVNMGSLFQQVAQKTGVSNTLENEFKGRASELQRMETDLQAKMKKLQSMKAGSDRTKLEKDVMAQRQTFAQKAQAFEQDRARRSNEERGKLVTRIQTAVKSVANSQDIDLVVDANAVAYNSSDVKDITADVLKQVK			
